Experimental data reported in patent US20250171558A1 (published 2025).

What was measured:
Experiment in all cases: SPR; human
SDIE = biological target: SDIE
Afucosylated = biological target: Afucosylated
human FcγRIIB = biological target: T1, human FcγRIIB (human, UniProt P31994 43-217)
T1 chain: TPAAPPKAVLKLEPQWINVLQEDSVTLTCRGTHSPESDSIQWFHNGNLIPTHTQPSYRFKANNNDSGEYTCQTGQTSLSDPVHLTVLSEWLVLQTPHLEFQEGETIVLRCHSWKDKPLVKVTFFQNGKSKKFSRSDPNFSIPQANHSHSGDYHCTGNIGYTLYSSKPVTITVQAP

B1: FcγRIIb (receptor)
chain: TPAAPPKAVLKLEPQWINVLQEDSVTLTCRGTHSPESDSIQWFHNGNLIPTHTQPSYRFKANNNDSGEYTCQTGQTSLSDPVHLTVLSEWLVLQTPHLEFQEGETIVLRCHSWKDKPLVKVTFFQNGKSKKFSRSDPNFSIPQANHSHSGDYHCTGNIGYTLYSSKPVTITVQAP
Kd (SDIE): 0.665 µM | Kd (Afucosylated): 5.88 µM

B2: GAALIE (protein)
chain: ASTKGPSVFPLAPSSKSTSGGTAALGCLVKDYFPEPVTVSWNSGALTSGVHTFPAVLQSSGLYSLSSVVTVPSSSLGTQTYICNVNHKPSNTKVDKRVEPKSCDKTHTCPPCPAPELLAGPSVFLFPPKPKDTLMISRTPEVTCVVVDVSHEDPEVKFNWYVDGVEVHNAKTKPREEQYNSTYRVVSVLTVLHQDWLNGKEYKCKVSNKALPLPEEKTISKAKGQPREPQVYTLPPSREEMTKNQVSLTCLVKGFYPSDIAVEWESNGQPENNYKTTPPVLDSDGSFFLYSKLTVDKSRWQQGNVFSCSVMHEALHNHYTQKSLSLSPGK
Kd (human FcγRIIB): 19.6 µM
